Experimental data taken from the DeepSol protein solubility set.

Assay: soluble on expression in E. coli; label from the status in PepcDB or PDB records

Sequence | soluble on expression in E. coli
MSLDAIEAEREVLIGFLQEFVRAASPNPPGDTRAAAAVIQGFLSARGVPNELLGPQESMPNVVSECEGGRAGPRLVYNGHMDVFPVGDGHGWTRDPWSGDIEEGRLHGRGTCDMKTGTAASVIAYAYLYARRAQLAGSVALTAVSDEETGGRWGTRWLLENDTRWRGDCVLNGEPSSLDTIRFSEKGTLRLKFEVLAAGAHGAYVHRSESPTRIAAALIGRLAEVEAIEPSLPAALKAHLQREDVRRALDVAMGEGAADVVTRTTLNVGVLNGGLKINMIPDRCVFEVDIRLPVGTEPDVVLARLEGILAEFPQASMEVQQWHSTPPNVCAHDHPMVDFIADNAQAIVGRRPVAVPSIGSTDCRYWRRSGVPAYVYGPAPGRMAMSNESVDLDEFIAVAKVHAAAGWDYLNGAAEGHHHHHH | not soluble
MSLDALTTLPIKKHTALLNRFPETRFVTQLAKKRASWIVFGHYLTPAQFEDMDFFTNRFNAILDMWKVGRYEVALMDGELTSEHETILKALELDYARIQDVPDLTKPGLIVLDMDSTAIQIECIDEIAKLAGVGEEVAEVTERAMQGELDFEQSLRLRVSKLKDAPEQILSQVRETLPLMPELPELVATLHAFGWKVAIASGGFTYFSDYLKEQLSLDYAQSNTLEIVSGKLTGQVLGEVVSAQTKADILLTLAQQYDVEIHNTVAVGDGANDLVMMAAAGLGVAYHAKPKVEAKAQTAVRFAGLGGVVCILSAALVAQQKLSWKSKEGHHHHHH | soluble
MSLDAVDGVRLEEGDAIDWIVFDRPQAANSFSATLLEQFSALVKDRQANGAPVLGIRGSGRGFSSGMDLGEYNATSGPTSDVLRLSSYVERWLDLWRHPKPVIVAVHGYCIGVAAQLASFADILVVAEDAMISEPTIPIGGGFIAPTWVSHVGSRHAKEFAFLPGNRIDGRMAAAWGWANCAVPASEVIACCESLAQRMKLMPPAVLAMKKRSINRAMEAAGFHAAASAIAESDALLHLEPEVTAIRNRLRTEDLKAVVGSYAGESSQEIFQREGHHHHHH | soluble
MSLDEIKIEKLKKLDKKALNELIDVYMSGYEGLEEYGGEGRDYARNYIKWCWKKASDGFFVAKVGDKIVGFIVCDKDWFSKYEGRIVGAIHEFVVDKKFQGKGIGRKLLITCLDFLGKYNDTIELWVGEKNYGAMNLYEKFGFKKVGKSGIWVRMIKRQNLEGHHHHHH | soluble
MSLDEKLRTSGVQVIGDIAWGTHFCQFYRTQEELVNVVCPYLKAGLEGNELCIWALPRDFETKKEAEGPLRRTIPKLDIYLEKGQMEIISYKDRYAEKEIPDSKKALENLIKKADYALLNGYSGLRLVQDTSWLKNDWKNLTGYEEELDIAIENRRITALCTYSSGKFDTDETIYAALSHRFVLVKKEGNWEKVENPRLKKAEERVIQPSEEVETKTEEENENLKKLLEERTVELTEAYKSLKVNEKQFLQIRKMTHIGNWKWDILTGELHWSDEVYRIFGRDPERFKATCDAFLGSVHPDDREYLINSIKKDFDEQIRNIDYRIVLPDGEERTVRTRVEITFDEEGHHHHHH | not soluble
MSLDFAKQGPIVIGGVGGSGTRLIAEIVMDMGFYLGGMLNQSKDLLYFSLLFKRPTWFSKVVTSNEQEIFRGLKILENRLTTQKELTGKDIKFIEKAAQTYRNGDLLAQKIKKNMLFPDPINRQLYRGWGWKEPNAHLFLPYIHRYFPNGKYIHVIRNGLNMAFSKNQQQLFNWGPLFGVTIPNNPMKIPNASLTYWIKANERAVMYGTEQMKGRFLLIQFDQLCVNPTPQLQKLAEFLAVDDLAIDEWSEKIDPAAAASKYKEGHHHHHH | soluble
MSLDGGYRTLAAAELFKRYGHLISPVSGPIAYLHPMPGRNAGMRHMYVAGYLVCPPSAPRENRFDKLCSGKGASDAQARASALAEALERFSGVYQGDEAALRGSLAQLSAHAPPGSGPIDVNALQQYSDRQFERRERHNATTDDPRKQVPRRFTRDSVIDWTPAWSIATGARRLVPLAYCYAETPASSGADYCVHNPNGCAAGACIEEAILQGLLELVERDAVAIWWYNMLRRPAVDIESFGDPYFDALAADYASLGWRLWALDITHDLRIPVFVALARETATGRFSIGFGCHPDSRIALQRALTEVNQLLDVGASAPPPWDVDKLPDDAFLHPDPALPPVRAPARAPHGRCDLKRDIEDCVARLAAAGIDTLVVDKTRPDIGLPVVQVIAPGLCHFWPRFGAPRLYSVPVAQRWRERPRDEDALNRAEGHHHHHH | not soluble
MSLDHRLLSINTATVRRQGDLATIIEACARAQIRAISPWRDQVAHIGLPRAVEAVKATGLALSGYCRGGMFPADPARLPEVRDDNRRAVDEAEALGASCLVLVVGGLPQYARPGSAPSKDIGAARAMVEDGIGTLLEYARSAHMPLAIEPLHPMYAADRACVNTMGQALDICDRLDPERSGMLGVALDVFHVWWDPDLSAQIVRAGRDRLLAYHVCDWLVPMADMLNDRGMMGDGVIDLKAIRAQVEAQGYQGFAEVEIFSEHWWAKPMEEVLGTCISRHRSVVEGHHHHHH | not soluble
MSLDIRLLIMPLPDFALLPFGAFLDKLRFSADDEDYSQQRYCSWMVAGLSLEPVPSSSGAVLQVEAIADQLDLDLFDYLVVFGGRSAMATAALAPRYQALLRQAAKAGVKLVGVDNGAFLLAACGLLQGHKVVVHWRHEAEFRAAFPQLQLLREQLYCIDGNRITCAGGTAAIDLAVALLSRACGRTRALKGLADMLVDETREGHHHHHH | soluble
MSLDKIKAVIFDMDGVLIDAKEWHYEALNKALRLFGFEISRYDHLVTFDGLPTAKKLEMMTVERGLPKSLHQLINDMKQIYTMEYVYMKCKPLFVHQYALSRLKSEGFRLALASNSVRVTIDMMMEKADLNQYLDFSLSNQDVKKSKPDPEIYITAINRLGLSPEECLVVEDNQNGVKAALASGANLLKVETINDVTYSNIINRINEIENNIEGHHHHHH | soluble
MSLDKVYPIGSQYTINGFIIGDDTTENGYPITAKIEVVDTKNTISPKLIAHTIPLNNVKINGNNRLTSNRDLAIKEIISWDVSQQLYNYRDTYGLSTEGYTRSDGWDSPETKLKGHGSGHYMSALALAYAAATNPSHKEILRRNITRMVNELRECQERTFVWSEELGRYLEARDFAPEEELKKMKGTWEAFDEHKTKWATYGYGYLNAIPPHHPALIEMYRAYNNSDWVWAPYYSIHKQLAGLIDIATYMDDKSIADKALLIAKDMGLWVWNRMHYRTYVKKDGTQEERRTHPGNRYEMWNMYIAGEVGGMGESLARLSEMVSAPEEKARLIEASNCFDSPAFYEPLSKNIDDIRNRHANQHIPMIIGALRSYLSNNDTFYYHVSHNFWNLIQGRYRYSTGGVGNGEMFRQPYTQIVSMAMNGVSEGESHSNPHINETCCAYNLLKLTKDLNCFNPDDARYMDYYERTLYNQIIGSLHPEHYQTTYQYAVGLNASKPWGNETPQSTCCGGTGSENHVKYQEATYFVSDNTLWVALYMPTTLHWEEKNITLQQECLWPAKSSTIKVTAGEARFAMKLRVPYWATDGFDVKLNGISIATHYQPCSYAVIPTRQWKENDIVEITMPFTKHIDYGPDKLPAEIASKDGHQLETAWVGTLMHGPFAMTATDITNWTEATLNIDSRLASITVVEPNGPQTGTTGNLYTLMQGGRTFQPDYYRHDHTTHYFRINHIKDPTVELKMALSAKLRETTAFSKSHYTKASFAKLTTAIQEGEKLMKISPLTETTISTCVDNIDKAIESLVASRLDKSNLEASIHIAKKCNPDLYTTDSFKTLQATLESAHEVMDNIDLQTVIDKQTLSLQDATASLVLANNVDKTELKELLNIAMERQTNQEKWNALAVKIPEFAPWAHFGFTRLKRTLEHAQNVYFNKDKNYSQGEVNAIVASLNTVINTMRPGNLPEMEDLRPLSALLRRVGTIDDSTDPTLKDAVAFTEMVIKYVADGSGTHDMIETAISRLKSAAGEGHHHHHH | soluble
MSLDLDRKLIEILDILSKSKEPVGAKIIAKELNKRGYKIGERAVRYHLKLLDGMKLTKKVGYAGRVITERGLEELEKANISYRLGSIYSNILEKTISANYRFGYVVINRCQVYADFNDVLKIIKSVYESGLAVGDRVGIIDREKFVEINTLCSLNFDNILLQNGIFPLHVCAGVVKYEDGKPVEFKEIIDYKSTSIDPLRAFIEKKETDVMGIIENGEGYLPANFRYFGVEFLERFETILEIDELKCIISYGTENVLGLDVGDDKVGVALIGGLTPIAPFVENNYCVEICPMSSIVRLESLHKLKKNPRDIVTKKANIRIKTALSKMFNAMAKVTYDIDEADGDVIVNTAFIDKKYLDEAFDILKEAYKKGLGISDRFGIVEENDRIKIQTICAVTLDGIFLRNSVPLIPKYGGILEITEDKERFIDIIGYDGSSLDPHEVFFNFVDCEKTFLAGFREVHRVAREKLEEVLKKLNWNGIKAIGEPNNELYGIGVNKDMCGVVTMGGINPLVLLKENEIPIELKAMHEVVRFSDLKSYKEIEGHHHHHH | not soluble
MSLDLHYKQFLLLNLYRQDKCLLAEVLLKDSSEFSFGVKFFNYGQLIAYIDSLNSNVYNASITENSFFMTFFRSYIIENTSHKNIRFFLENVECPFYLRHNEVQEFMFAMTLFSCGNFDQSYEIFQLHDYPEAINDKLPTFLEDLKSENYHGDSIWKDLLCTFTVPYRHSAFYYQLSLLFDRNNSQEFALKCISKSAEYSLKEIQIEELQDFKEKQHIHYLNLLIHFRMFEEVLDVLRLGHECLSDTVRTNFLQLLLQEDIYSRDFFSTLLRLCNAHSDNGELYLRTVDIKIVDSILSQNLRSGDWECFKKLYCFRMLNKSERAAAEVLYQYILMQADLDVIRKRKCYLMVINVLSSFDSAYDQWILNGSKVVTLTDLRDELRGEGHHHHHH | not soluble
MSLDLKRLKGSERVRKRVSVMMGSDDIRGCQHTLFEIVSNSIDRHRKGFGNYIKVIKHEDLSYTIIDHADGLPMDWNEKEHAYNWDLALKVLYAGDNYDANSTALGLNGLGLCSSQYASEFMEVISYKEDKKYTVKCKKGRPIDKETGEFICEDDDNLFTKEQGNRVLLVESNTENKTGTYIHYKPDLEVFTNIDISIDWINDKLDKQSMVNKGLKIEIYDEKEDRLYTHFYESGIKDYIKTISNDNNFSDVIYFTDKGKGRDKADKPEYDYNYEIALVFNNEINRLEYYHNSSELLQGGSTSDAISLAFTYAINEYAKNNNVFNKNESKIKFTDIQDSLICVISSFSTMTSYANQTKLSIDNKFIKDFTNQSLKEKLKLYFIENKLEADRIVNQILINKRANDKAEKSKIEIRNKEGHHHHHH | soluble
MSLDNGIELPGVSFWGGNILQDTDGKYHLFVCGWPEDSPKGHMFWSNSTVFHAVSDRLEGPFKIQNSVGKGHNPEAFQLKDGRVVVYVIDGYYIADGVDSKVWTYGKFSFDSRDRKIIEGLSNLTFARRQDDSYLMVCRGGGVWISKDGLSPYMQLTDKRVYPDVEGRFEDPVVWRDELQYHLIVNDWLGRIAFYQRSKDGVHWVTEQGEAYVPGVSFHKDGAVEHWFKYERPKVFQDEKGRAVQMNFAVIDTIKWNDLPNEGHHHHHH | not soluble
MSLDNNIKIIPFGGVRENGKNMYAVEIEDQIFILDTGLKYPENELMGIDVVIPDWEYLREHKDKIVGVFLTHGHADSIGALPYFLMDFNVPVFGSEMTIALAKLAVKNHKEVKKFNDFHVVDASTAIDFNDVTVSFFQTTHTIPETLGVVLETKAGNIVYTGDFKFDQTAKKGYQTDLARLAEIGSQGVLALLSDSAGAGITGASAREQDIGDYIKETFKYQNGRIIVASVASNIMRVQQIINAAVAVGRKIVLSGKDIEQIIDTAMSLGKLHLPDDLFISRKEAEKLEPNQVVILETGKMGEPIKSLQQIANGDNPNLQLTSTDLVFVTTTPSYAQETEVQKTKDMIYRTGAEVKFISDDLNPSGHANQNDEQLMLNFMKPKFFIPIQGEYRLLDRHAELAEEVGIPKENIFLVNKGDVLTYKNGKFHVGEHIDVSNTMIDGTGVGDIGNIVLRDRRVLSEDGIFVVVATIDRKKKKIVARPQITSRGFVFVKTNRQLMQQSADLVEKIVQENLDQKEFDWSHLKQDVRDKLNRFLFDQTKRHPVILPVIMEINQHQKKIKNEGHHHHHH | soluble
